Experimental findings from the nanobody polyreactivity screen of Harvey et al. (2022) are described below.

The data set can be described thus: yeast display, Sf9 membrane polyspecificity reagent, FACS + sequencing; frameworks hold sequencing errors. The gist of the method:
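Synthetic nanobody libraries on Saccharomyces cerevisiae BJ5465 were galactose-induced for 36–48 hours, stained 1 hour at 4 °C with 10% biotinylated, detergent-solubilized Sf9 membrane reagent and enriched on streptavidin microbeads. FACS then separated cells into low and high (top ~1%) gates by anti-HA (expression) and streptavidin (reagent binding) fluorescence. Genes were colony-PCR amplified, MiSeq 2 × 250 sequenced and CDR-length filtered. A clone's polyreactivity label is that of its gate of origin.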
For “QVQLVESGGGLVQAGGSLRLSCAASGRIIGFYAMGRYRQAPGKERELFAAINTGGGTNYADSVKGRFTISRDNAKNTVYLQMNSLKPEDTAVYYCAARTYDYRARHKVGYWGQGTQVTVSS”, the “polyreactivity (PSR sort gate)” value is reported as “high polyreactivity”.

Turning to “QVQLVESGGGLVQAGGSLRLSCAASGRIIGPYTMGWYRQAPGKEMEFVAAITRRGGSTYYADSVKGRFTISRDNAKNTVYLQMNSLKPEDTEVYYCAAVGQKRSLGYSWGQGTQVTVSS”, the “polyreactivity (PSR sort gate)” value is listed as “low polyreactivity”.

Regarding “QVQLVESGGGLVQAGGSLRLSCAASGRIIIYNAMGWYRQAPGKERQLVAAINRSGVSTHYADSVKGRFTISRDNAKNTVYLQMNSLKPEDTAVYYCARTVYGARSYDYWGQGTQVTVSS”, the “polyreactivity (PSR sort gate)” value is “low polyreactivity”.

Consider “QVQLVESGGGLVQAGGSLRLSCAASGRIILDYAMGWYRQAPGKERELVAAITWRGGSTNYADSVKGRFTISRDNAKNTVYLQMNSLKPEDTAVYYCNADPDDQYDYWGQGTQVTVSS”, for which the “polyreactivity (PSR sort gate)” value was “low polyreactivity”.

Consider “QVQLVESGGGLVQAGGSLRLSCAASGRIINDYTMGWYRQAPGKERELVAAITTSTGSTYADSVKGRFTISRDNAKNTVYLQMNSLKPEDTAVYYCAADSRPGKYYEDDSWGQGTQVTVSS”, for which the “polyreactivity (PSR sort gate)” value was “low polyreactivity”.

As to “QVQLVESGGGLVQAGGSLRLSCAASGRIIQRNTMGWYRQAPGKERELVAAISGSTGRTYYADSVKGRFTISRDNAKNTVYLQMNSLKPEDTAVYYCNTVGRSSSLSVFLIGYGYWGQGTQVTVSS”, the “polyreactivity (PSR sort gate)” value is “high polyreactivity”.

With “QVQLVESGGGLVQAGGSLRLSCAASGRIIRAYAMGWYRQAPGKERELVAAISGGSNTNYADSVKGRFKISRDNAKNTVYLQMNSLKPDDTAVYYCAADAGYWESLWYPYGFYWGQGTQVSVSS”, the “polyreactivity (PSR sort gate)” value is reported as “low polyreactivity”.

On to “QVQLVESGGGLVQAGGSLRLSCAASGRIIRIYTMGWYRQARGKERELVAAITKSGGSTSYADSVKGRFTISRDNAKNTVYLQMNSLKPEDTAVYYCNAKGWTRPPGYDYWGQGTQVTVSS”, for which the “polyreactivity (PSR sort gate)” value is on record as “high polyreactivity”.

For “QVQLVESGGGLVQAGGSLRLSCAASGRIIRYYVMGWYRQAPGKEREFVASISGRGASTYYADSVKGRFTISRDNAKNTVYLQMNSLKPEDTAVYYWNKESYFDTYRRYDSWGQGTQVTVSS”, the “polyreactivity (PSR sort gate)” value is given as “low polyreactivity”.

Turning to “QVQLVESGGGLVQAGGSLRLSCAASGRIISSYAMGWYRQAPGKERELVAAITSSGGSTYYADSVKGRFTISRDNAKNTVYLQMNSLKPEDTAVYYCAARVFARYYTAYGVETRREEDYWGQGTQLTVSS”, the “polyreactivity (PSR sort gate)” value is on record as “low polyreactivity”.

Regarding “QVQLVESGGGLVQAGGSLRLSCAASGRIISVNAMGWYRQAPGKERELVAAITTRGGTPYYADSVKGRFTISRDNAKNTVSLQMNSLKPEDTAVYYCAAESSWSVYWEWAHDYWGQGTQVTVSS”, the “polyreactivity (PSR sort gate)” value is “low polyreactivity”.

Consider “QVQLVESGGGLVQAGGSLRLSCAASGRIITFNPMGWYRQAPGKERELVAAISSRGDGTYYADSVKGRYTISRDNAKNSFYVQMNSLKPEDTAVYYCARYPDDYYDWGYDYWGHGTQVTVSS”, for which the “polyreactivity (PSR sort gate)” value is on record as “low polyreactivity”.

Consider “QVQLVESGGGLVQAGGSLRLSCAASGRIIWSYAMGWYRQAPGKERELVAAIRSGGTTDYADSVKGRFTISRDNAKNTVYLQMNSLKPEDTAVYYCAADPYSVYGGDYWGQGTQVTVSS”, for which the “polyreactivity (PSR sort gate)” value is on record as “low polyreactivity”.

For “QVQLVESGGGLVQAGGSLRLSCAASGRIIYIYAMGWYRQAPGKERELVAAITASSGSTNYADSVKGRFTISRDNAKNTVYLQMNSLKPEDTAVYYCAAAPSRTLLRQSKYYYWGQGTQVTVSS”, the “polyreactivity (PSR sort gate)” value was “low polyreactivity”.

With “QVQLVESGGGLVQAGGSLRLSCAASGRIIYRYAMGWYRQAPGKERELVAAISYRGGSTYYADSVKGRFTISRDNAKNTVYLQMNSLKPEDTAVYYCAADRRYYDWRYGGFDYWGQGTQVTVSS”, the “polyreactivity (PSR sort gate)” value is recorded as “high polyreactivity”.

Consider “QVQLVESGGGLVQAGGSLRLSCAASGRILATYTMGWYRQAPGKERELVATITSGGRTTYADSVKGRFTISRDNAKNTVYLQMNSLKPEDTAVYYCNVANWYYRKYRPLWGRDYYWGQGTQVTVSS”, for which the “polyreactivity (PSR sort gate)” value was “high polyreactivity”.

Regarding “QVQLVESGGGLVQAGGSLRLSCAASGRILGKNALGWYRQAPGKEREWVADISGRGDRTHYADSVKGRFTISRDNAKNTVYLQMNSLNAEYTAVYYCAKYHHPPGKGQSVSLGYDFWGQGTQVTVSS”, the “polyreactivity (PSR sort gate)” value was “low polyreactivity”.

As for “QVQLVESGGGLVQAGGSLRLSCAASGRILGKYAMGWYRQAAGKERELVAAIRLRGGSTYYADSVKGRFTISRDNAKNTVYLQMNSLKPEDTAVYYCAARYWDRSQAYNYWGQGTQVTVSS”, the “polyreactivity (PSR sort gate)” value is on record as “high polyreactivity”.

“QVQLVESGGGLVQAGGSLRLSCAASGRILGSYAMGWYRQAPGKERELVAAISSGARTNYADSVKGRFTISRDHAKNTVYLQMNCLKPEDTAVYYCAAATYNQDYSYDYWGQGTQVTVSS”: the “polyreactivity (PSR sort gate)” value is recorded as “low polyreactivity”.

Take “QVQLVESGGGLVQAGGSLRLSCAASGRILGSYAMGWYRQAPGKERELVAGISWRGGRTYYADSVKGRFTISRDNAKNTVYLQLNSLKPEDTAVYYCATRSSSRKYGYWGQGTQVTVSS”: the “polyreactivity (PSR sort gate)” value is listed as “high polyreactivity”.

On to “QVQLVESGGGLVQAGGSLRLSCAASGRILGSYAMGWYRQAPGKERELVAGISWRGGRTYYADSVKGRFTISRDNAKNTVYLQMNSLKPEDTAVYYCATRSSSRKYGYWGQGTQVTVSS”, for which the “polyreactivity (PSR sort gate)” value was “high polyreactivity”.

Regarding “QVQLVESGGGLVQAGGSLRLSCAASGRILGTYAMGWYRQAPGKERELVAAISGSGGDTYYADSVKGRFTISRDNAKNTVYLQMNSLKPEDTAVYYCAAEVPFTGGFFKYYYWGQGTQVTVSS”, the “polyreactivity (PSR sort gate)” value is “low polyreactivity”.

“QVQLVESGGGLVQAGGSLRLSCAASGRILGVNAMGWYRQAPGKERELVAAINWNGGSTYYADSVKGRFTISRDNAKNTVYLQMNSLKPEDTAVYYCAAERSLYYVYSREYWGQGTQVTVSS”: the “polyreactivity (PSR sort gate)” value is recorded as “low polyreactivity”.

Consider “QVQLVESGGGLVQAGGSLRLSCAASGRILGYYGMGWYIQAPGKERELVAAITSGGGSTYYADSVKGRFTISRDNAKNTVYLQMNSLKPEDTAVYYCNAVPSQHDEFDYWGQGTQVTVSS”, for which the “polyreactivity (PSR sort gate)” value was “low polyreactivity”.

As for “QVQLVESGGGLVQAGGSLRLSCAASGRILHFYAMGWYRQAPGKERELVAAISKSGGSTYYADSVKGRFTISRDNAKNTVYLQMNSLKPEDTAVYYCAASFIRRGSYSTTSAPGRYYWGQGTQVTVSS”, the “polyreactivity (PSR sort gate)” value was “high polyreactivity”.

“QVQLVESGGGLVQAGGSLRLSCAASGRILHIYAMGWYRQAPGKERELVAAISWIGTSTYYADSVKGRFTISRDNAMNTVFLQMNSLKPEDTAVYYCAATGPRMYYWGQGTQVTVSS”: the “polyreactivity (PSR sort gate)” value was “high polyreactivity”.

As to “QVQLVESGGGLVQAGGSLRLSCAASGRILHRNAMGWYRQAPGKERELVSAIRSRGGGTYYADSVKGRFTISRDNAKNTVYLQMKSLKPEDTAVYYCNTDRSTRTVGPGLYGYWGQGTQVTVSS”, the “polyreactivity (PSR sort gate)” value is reported as “low polyreactivity”.

“QVQLVESGGGLVQAGGSLRLSCAASGRILKRKAMGLYRQAPGKERELVAAISWSTGTTYYADSVKGRLTISVDNAKNTVYLQMNSLKPEDTAVYYCAKKIVSGRRVDRNDYWGQGTQVTVSS”: the “polyreactivity (PSR sort gate)” value is “low polyreactivity”.

As for “QVQLVESGGGLVQAGGSLRLSCAASGRILKVYAMGWYRQAPGKERELVAAISVNGGRTYYADSVKGRFTISRDNAKNTVYLQMNSLKPEDTAVYYCAKRLYKPGNVFYSVDQSDYWGQGTQVTVSS”, the “polyreactivity (PSR sort gate)” value is “low polyreactivity”.

Turning to “QVQLVESGGGLVQAGGSLRLSCAASGRILNVYAMGWYRQAPGKERELHAAINYRGTNTYYADSVKGRFTISRDNAKNTVFLQMNSLKPEDTAVYYCAAERWYYNVYAEYSWGQGTQVTVSS”, the “polyreactivity (PSR sort gate)” value is listed as “high polyreactivity”.
